According to US12551573B2, “Compositions and methods for the targeting of PCSK9” (Scribe Therapeutics Inc., priority 2022, dated 2026):
Positions count from the first letter of the chain named. Like-named read-outs stand apart in the source and are kept apart here.

B1: DOMAIN_13121 (protein, listed as Macaca fascicularis)
chain: GKELLSFEDVAMYFTREEWGRLDWGQKDLYRDVMLENYRNMVLLGFQFPKPEVICQLENWDEQWILDLPRAGSRKASGSAC
B2: DOMAIN_13277 (protein, listed as Macaca fascicularis)
chain: MTFEDVSVEFTQGEWGQLNPAQKDLYREVMLENFRNLAFLGLPVSKPYVICQLEEGGEPFIVEREVSTGAYSDWERRSKSK
B3: DOMAIN_13691 (protein, listed as Sapajus apella)
chain: AQESVTFEDVAVNFTDREWQCLTYAQRHLYKDVMLENYGNMVSVGFLFPKPPLISHLERGVEPCVQDPQDRESLSCSCLVS
B4: DOMAIN_14287 (protein, listed as Bos indicus)
chain: VQGSVSFEDVAVGFSQEEWQILGPSQKALYWDVMLENYCNLVSVGYQAPTPNSLFQLEQGGPPWTVEGAALSPTCSGKKLY
B5: DOMAIN_12057 (protein)
chain: LLESVTFGDVAVVFSRDEWLHLDAAQRSLYREVMLENYSALVSLGIPLSIPKLICQLQQGEDPCMVEREIPQDVCLGFKTW
modifications: Muntiacus muntjak
B6: DOMAIN_11796 (protein, listed as Sus scrofa)
chain: FRGPVTFKDITVEFTQEEWQLLDNAQRTLYREVMQENYHHLISVGYCVNKPNAVFKLKQGKEPWILEVEFPRRNNPEDLWN
B7: DOMAIN_12550 (protein, listed as Ailuropoda melanoleuca)
chain: SDEAFSFEDLSVDFTQKEWQLLNPGQKDLYKDVMLENYSSLVSLGYEIMKPDVIFKLEQGEEPWIGDGEVPSSGCPADMSY
B8: DOMAIN_12285 (protein, listed as Gorilla sp.)
chain: EPGAVSFADVAVYFCREEWGCLRPAQRTLYRDVMRETYGHLSALGIGGKKPALISWVEEEAELWGPAAQDPEVAKCPTQTD
B9: DOMAIN_11908 (protein, listed as Canis lupus)
chain: CEGSVSFEDVTMDFSREEWQQLDPAQRCLYQDVMLEIYSHLLFVGYNIPNPEIISRMEKGEEPWMREIQLPHQRHRERAFG
B10: DOMAIN_11944 (protein, listed as Bos indicus)
chain: PQESVTFEDVAVNFSHEEWQCLTHAQRHLYKDVMLENYGNMVSLGFSFSKPPLISRLEQGTEPYVQDRQDWEFLSCSYPVS
B11: DOMAIN_12231 (protein)
chain: PQESVAFEDVAVYFTAKEWDIMVPAERALYRDVMLENYEAVAFVVPPTSKPALVSHLEQGKESCFTRPQGVLCRNDWRAGL
modifications: Nomascus leucogenys
B12: DOMAIN_12590 (protein, listed as Bos indicus)
chain: AQEPVTFNDVAVDFTQEEWGQLDLVQRTLYRDVMLETYGHLLSVGNQITKPEVISLLEQGEEPWSMEPAYPLQGTCPAPEI
B13: DOMAIN_17317 (protein, listed as Otolemur garnettii)
chain: SQASVSFKDVNVEFTQDEWQQMGPAQRNLYRDVMLENYSNLVSVGYCIFKPKVIFRLEQGEEPWSSEEEFSSQRRPKNYRD
B14: DOMAIN_12755 (protein, listed as Oryctolagus cuniculus)
chain: SLGPVSFKDVAVGFTQEEWRQLEPAQRRTYREVMLENYSHLVAVGCHFIKPDVITKLERGEEPWIEGGFLPQGCADEVWQA
B15: DOMAIN_12114 (protein, listed as Neophocaena asiaeorientalis)
chain: VQASLSFEDVAVRFTWEEWQLLDPSQKDLYRNVMLENYCNLVSVGYQTPKPDSLFQLEQGEPPWRVEGAGQSQTCPEEIWE
B16: DOMAIN_18563 (protein, listed as Aotus trivirgatus)
chain: IQGQVNFEDVFVYFSQEEWVLLDEAQRLLYRDVMLENFALMASLGHTSFTSHTVASLVMGPDWVDVTPAVATGTLSGSGPG
B17: DOMAIN_13539 (protein, listed as Gorilla sp.)
chain: CYQDSVTFDDVAVDFTQEEWTLLDSTQRSLYSDVMLENYKNLATVGGQIIKPSLISWLEQEESRTVQGGVLRGRKTQWRGT
B18: DOMAIN_12206 (protein, listed as Bos mutus)
chain: QEQVSFKDVCVDFTQEEWYLLDPAQKILYRDVILENYSHLVSVGNCITKPEVIFKIEQGEEPWILEERFPKQWHSGKSYKY
B19: DOMAIN_11581 (protein, listed as Equus caballus)
chain: LQVSVSFEDVTVDFSREEWQHLDPAQRRLYRDVTLENYSHLCSVGYQVPKPEVIFKLEQGEGPWMLEGEAPHQSCSDDDIG
B20: DOMAIN_13269 (protein, listed as Desmodus rotundus)
chain: B19 chain with R31W, C42L, F55L, M65T, A70T, D78E
B21: DOMAIN_12912 (protein)
chain: B19 chain with D13N, C42R, M65T, A70T, D77G, D78E
modifications: Puma concolor
B22: DOMAIN_12896 (protein, listed as Macaca fascicularis)
chain: DTVVFEDVVVGFTLEEWALLNPAQRNLYREVMLETFKHLASVDNEAQPKTNGSISQQDTSGEKLSLKQKIEKFTRKHTWAS
B23: DOMAIN_14082 (protein)
chain: SPTLVTFKDIHVNFTREEWNLLDAAQQIMYKDVMLENYKNLVSVGHQLPKPDVILQLEKGEEPWLVERGVRQDTRPDWDTA
modifications: Phyllostomus discolor
B24: DOMAIN_16688 (protein)
chain: SQEQVSFKDVCVDFTREEWYLLDPAQKILYRDVILENYSHLVSVGNCITKPEVIFKIEQGEEPWILEERFPKQCCSERNWK
modifications: Lipotes vexillifer
B25: DOMAIN_11988 (protein)
chain: MAFEDVAVHFSQEEWGLLDTAQRSLYRRVMLENFALLASLGLSVSRPHVVTQLERGEEPWVLSGVDVTLPQDAQRRPRRGS
modifications: Muntiacus muntjak
B26: DOMAIN_12901 (protein, listed as Macaca fascicularis)
chain: MAFEDVAVYFSQEEWGLLDTAQRALYRHVMLENFTLVTSLGLSTSRPHVVIQLERGEEPWVPSGKDMTLARNTYRRLNAGE

Test system: HBEGF locus
Format: cell-based, human
[1] = repressor domain in dXR, repression of the HBEGF gene, abundance of domain in library after vs before diphtheria toxin selection
[2] = high-throughput screen of dXR repression of the HBEGF gene, abundance of each domain in the library before and after diphtheria toxin selection, HEK293T cells
[3] = high-throughput screen of dXR repression of the HBEGF gene, change in abundance of each domain in the library before and after diphtheria toxin selection

Molecule | Log2 (fold change) [1] | also measured
B1 | 3.353 | 
B2 | 2.9151 | 
B3 |  | Log2 (fold change) [2]: 2.6205
B4 |  | Log2 (fold change) [2]: 3.6232
B5 | 2.0631 | 
B6 | 2.2811 | 
B7 | 3.0229 | 
B8 | 2.2573 | 
B9 | 2.894 | 
B10 | 3.2762 | 
B11 | 2.6703 | 
B12 | 2.5531 | 
B13 |  | Log2 (fold change) [3]: 3.4551
B14 | 2.8082 | 
B15 | 3.3227 | 
B16 |  | Log2 (fold change) [3]: 3.0406
B17 |  | Log2 (fold change) [3]: 3.4924
B18 | 2.9101 | 
B19 | 3.1882 | 
B20 | 2.7236 | 
B21 | 2.7422 | 
B22 | 2.0413 | 
B23 |  | Log2 (fold change) [2]: 3.2495
B24 |  | Log2 (fold change) [3]: 3.5601
B25 | 3.5916 | 
B26 | 3.5686 | 
